Laboratory results from patent US20240124528A1 (ACADEMIA SINICA, published 2024).

Assays:
TAK1, endogenous = biological target: T1, TAK1, endogenous (human, UniProt O43318 1-606, limits assumed); test: co-IP with anti-Flag agarose, IL-17RB-KO BxPC3 cells, rIL-17B (FIG. 6G)
T1 sequence (looked up): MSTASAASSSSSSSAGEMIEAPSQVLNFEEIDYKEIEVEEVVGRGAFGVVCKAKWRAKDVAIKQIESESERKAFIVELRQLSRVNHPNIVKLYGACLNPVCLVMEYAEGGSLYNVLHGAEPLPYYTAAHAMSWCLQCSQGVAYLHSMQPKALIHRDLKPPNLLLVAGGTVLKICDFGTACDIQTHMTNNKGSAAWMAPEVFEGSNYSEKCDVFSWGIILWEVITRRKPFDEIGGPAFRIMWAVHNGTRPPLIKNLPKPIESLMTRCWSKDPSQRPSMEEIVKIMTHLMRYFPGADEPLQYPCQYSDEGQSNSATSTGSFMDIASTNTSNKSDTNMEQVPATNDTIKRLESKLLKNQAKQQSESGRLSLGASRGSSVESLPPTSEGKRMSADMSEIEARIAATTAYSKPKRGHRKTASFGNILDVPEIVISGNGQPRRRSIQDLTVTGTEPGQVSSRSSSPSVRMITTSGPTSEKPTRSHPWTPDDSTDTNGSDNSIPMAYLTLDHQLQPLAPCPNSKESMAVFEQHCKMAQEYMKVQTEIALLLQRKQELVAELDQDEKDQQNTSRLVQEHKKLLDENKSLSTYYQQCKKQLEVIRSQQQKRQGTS

TRAF6, endogenous = biological target: T2, TRAF6, endogenous (human, UniProt Q9Y4K3 1-522); test: as above
T2 sequence (looked up): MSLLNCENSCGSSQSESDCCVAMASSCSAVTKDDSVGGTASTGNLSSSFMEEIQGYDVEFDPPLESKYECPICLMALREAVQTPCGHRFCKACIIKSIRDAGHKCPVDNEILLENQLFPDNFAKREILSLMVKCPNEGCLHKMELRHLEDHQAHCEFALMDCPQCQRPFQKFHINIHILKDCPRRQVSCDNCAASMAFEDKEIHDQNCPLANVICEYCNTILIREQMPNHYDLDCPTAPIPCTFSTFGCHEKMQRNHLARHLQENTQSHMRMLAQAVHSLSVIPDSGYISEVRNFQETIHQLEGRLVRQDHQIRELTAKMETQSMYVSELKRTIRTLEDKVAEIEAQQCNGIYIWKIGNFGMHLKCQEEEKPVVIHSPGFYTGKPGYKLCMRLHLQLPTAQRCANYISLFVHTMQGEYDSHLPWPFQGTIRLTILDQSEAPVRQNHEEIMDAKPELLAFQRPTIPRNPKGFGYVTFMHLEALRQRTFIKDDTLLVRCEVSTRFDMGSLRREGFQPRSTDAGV

ACT1, endogenous = biological target: T3, ACT1, endogenous (human, UniProt O43734 1-574, limits assumed); test: as above
T3 sequence (looked up): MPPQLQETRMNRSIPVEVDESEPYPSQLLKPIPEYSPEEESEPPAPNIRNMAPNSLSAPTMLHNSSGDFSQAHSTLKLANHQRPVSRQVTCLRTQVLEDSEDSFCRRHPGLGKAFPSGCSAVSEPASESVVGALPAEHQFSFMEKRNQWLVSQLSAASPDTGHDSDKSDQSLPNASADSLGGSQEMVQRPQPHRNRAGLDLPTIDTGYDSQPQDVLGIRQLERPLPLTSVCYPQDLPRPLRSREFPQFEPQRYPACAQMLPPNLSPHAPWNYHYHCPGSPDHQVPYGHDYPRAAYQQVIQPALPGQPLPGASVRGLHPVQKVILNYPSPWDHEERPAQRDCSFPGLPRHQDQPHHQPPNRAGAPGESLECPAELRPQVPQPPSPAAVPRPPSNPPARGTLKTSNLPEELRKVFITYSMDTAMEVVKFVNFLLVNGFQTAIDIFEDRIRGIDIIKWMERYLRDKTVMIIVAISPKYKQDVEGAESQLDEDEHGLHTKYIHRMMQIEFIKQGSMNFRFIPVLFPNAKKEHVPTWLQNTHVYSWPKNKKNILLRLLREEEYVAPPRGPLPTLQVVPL

[1] = biological target: T4, IL-17RB-HA (C-terminally HA-tagged full-length IL-17RB, wild type) (human, UniProt Q9NRM6 18-502); test: co-IP with anti-HA beads, IL-17RB-KO BxPC3 cells, 50 ng/ml rIL-17B (FIG. 14B)
T4 construct: Full-length IL-17RB subcloned into pcDNA3.1, expressed in 293T, IL-17RB-KO BxPC3 or SU.86.86 cells; also called HA-IL-17RB; HA-tagged WT IL-17RB; not shown: HA tag, C-terminal
T4 sequence: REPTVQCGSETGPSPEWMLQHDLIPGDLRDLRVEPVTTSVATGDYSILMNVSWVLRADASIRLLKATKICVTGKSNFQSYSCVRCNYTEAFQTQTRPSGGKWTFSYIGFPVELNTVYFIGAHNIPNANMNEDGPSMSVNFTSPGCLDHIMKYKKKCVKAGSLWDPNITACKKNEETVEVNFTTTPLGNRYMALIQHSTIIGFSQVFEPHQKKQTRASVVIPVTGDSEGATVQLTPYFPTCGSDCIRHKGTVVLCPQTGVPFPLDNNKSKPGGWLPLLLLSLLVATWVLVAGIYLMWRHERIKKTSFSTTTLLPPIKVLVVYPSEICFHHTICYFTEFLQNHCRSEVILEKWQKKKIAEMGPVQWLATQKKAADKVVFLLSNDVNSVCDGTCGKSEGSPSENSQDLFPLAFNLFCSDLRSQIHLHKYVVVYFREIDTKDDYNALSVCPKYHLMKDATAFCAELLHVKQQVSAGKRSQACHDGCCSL

[2] = biological target: T5, mixed-lineage kinase 4 (MLK4), endogenous (human, UniProt Q5TCX8 1-1036, limits assumed); test: co-IP with anti-HA beads, blot with anti-MLK4, rIL-17B (FIG. 5D)
T5 construct: also called KIAA1804; MAP3K21

Flag-MLK4 = biological target: T6, Flag-MLK4 (human, UniProt Q5TCX8 1-1036, limits assumed); test: reciprocal co-IP, 293T cells, rIL-17B (FIG. 5C)
T6 construct: also called Flag-tagged WT MLK4; not shown: Flag tag
T6 sequence (Q5TCX8 whole entry): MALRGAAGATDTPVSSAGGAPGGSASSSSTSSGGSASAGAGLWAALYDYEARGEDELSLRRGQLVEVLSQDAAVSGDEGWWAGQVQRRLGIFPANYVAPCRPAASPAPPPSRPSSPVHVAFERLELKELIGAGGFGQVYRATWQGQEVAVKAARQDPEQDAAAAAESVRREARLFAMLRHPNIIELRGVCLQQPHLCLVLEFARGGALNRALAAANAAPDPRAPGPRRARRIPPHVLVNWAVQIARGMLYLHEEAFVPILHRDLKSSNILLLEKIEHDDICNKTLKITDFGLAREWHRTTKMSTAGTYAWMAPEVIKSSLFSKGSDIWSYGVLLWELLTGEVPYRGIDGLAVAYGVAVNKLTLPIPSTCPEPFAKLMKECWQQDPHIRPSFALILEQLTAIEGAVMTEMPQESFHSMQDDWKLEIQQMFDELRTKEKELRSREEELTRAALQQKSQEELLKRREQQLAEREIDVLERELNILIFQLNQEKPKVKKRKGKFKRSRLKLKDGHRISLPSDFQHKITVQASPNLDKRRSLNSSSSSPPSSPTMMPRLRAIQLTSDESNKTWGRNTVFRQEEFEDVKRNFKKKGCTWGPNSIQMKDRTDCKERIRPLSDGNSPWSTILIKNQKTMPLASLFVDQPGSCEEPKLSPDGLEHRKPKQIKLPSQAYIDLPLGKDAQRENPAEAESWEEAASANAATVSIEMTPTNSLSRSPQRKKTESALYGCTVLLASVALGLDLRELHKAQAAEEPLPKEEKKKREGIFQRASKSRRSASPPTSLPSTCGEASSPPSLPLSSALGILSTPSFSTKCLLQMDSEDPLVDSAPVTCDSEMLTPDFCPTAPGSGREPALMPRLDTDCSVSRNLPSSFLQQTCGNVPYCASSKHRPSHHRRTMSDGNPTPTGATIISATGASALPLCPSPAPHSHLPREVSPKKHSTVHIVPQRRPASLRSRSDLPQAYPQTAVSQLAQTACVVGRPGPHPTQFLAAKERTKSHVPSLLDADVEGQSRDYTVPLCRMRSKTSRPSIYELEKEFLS

T5 sequence (Q5TCX8 whole entry): as above

B1: IL-17RB K470R, Flag-tagged (receptor)
chain: REPTVQCGSETGPSPEWMLQHDLIPGDLRDLRVEPVTTSVATGDYSILMNVSWVLRADASIRLLKATKICVTGKSNFQSYSCVRCNYTEAFQTQTRPSGGKWTFSYIGFPVELNTVYFIGAHNIPNANMNEDGPSMSVNFTSPGCLDHIMKYKKKCVKAGSLWDPNITACKKNEETVEVNFTTTPLGNRYMALIQHSTIIGFSQVFEPHQKKQTRASVVIPVTGDSEGATVQLTPYFPTCGSDCIRHKGTVVLCPQTGVPFPLDNNKSKPGGWLPLLLLSLLVATWVLVAGIYLMWRHERIKKTSFSTTTLLPPIKVLVVYPSEICFHHTICYFTEFLQNHCRSEVILEKWQKKKIAEMGPVQWLATQKKAADKVVFLLSNDVNSVCDGTCGKSEGSPSENSQDLFPLAFNLFCSDLRSQIHLHKYVVVYFREIDTKDDYNALSVCPKYHLMRDATAFCAELLHVKQQVSAGKRSQACHDGCCSL
notes: also called K470R-mutant IL-17RB; not shown: Flag tag
TAK1, endogenous
  binding result: no binding
TRAF6, endogenous
  binding result: no binding
ACT1, endogenous
  binding result: no binding
[1]
  binding result: binds

B2: IL-17RB ΔV403˜S416 (Del-3), HA-tagged (receptor)
chain: REPTVQCGSETGPSPEWMLQHDLIPGDLRDLRVEPVTTSVATGDYSILMNVSWVLRADASIRLLKATKICVTGKSNFQSYSCVRCNYTEAFQTQTRPSGGKWTFSYIGFPVELNTVYFIGAHNIPNANMNEDGPSMSVNFTSPGCLDHIMKYKKKCVKAGSLWDPNITACKKNEETVEVNFTTTPLGNRYMALIQHSTIIGFSQVFEPHQKKQTRASVVIPVTGDSEGATVQLTPYFPTCGSDCIRHKGTVVLCPQTGVPFPLDNNKSKPGGWLPLLLLSLLVATWVLVAGIYLMWRHERIKKTSFSTTTLLPPIKVLVVYPSEICFHHTICYFTEFLQNHCRSEVILEKWQKKKIAEMGPVQWLATQKKAADKVVFLLSNDVNSENSQDLFPLAFNLFCSDLRSQIHLHKYVVVYFREIDTKDDYNALSVCPKYHLMKDATAFCAELLHVKQQVSAGKRSQACHDGCCSL
notes: Deletion of the flexible loop; also called Del-3 mutant; not shown: HA tag
[2]
  binding result: no binding
Flag-MLK4
  binding result: no binding
